Reference: publication PMC5925748 (Molecular cancer therapeutics, 2017)

Target: sEGFR (soluble extracellular region of EGFR, wild type) (Homo sapiens, UniProt P00533)
Experiment: SPR

- Kd: 6.1 nM
B1: necitumumab Fab (Fab11F8) (Fab, V domains shown)
VH: QVQLQESGPGLVKPSQTLSLTCTVSGGSISSGDYYWSWIRQPPGKGLEWIGYIYYSGSTDYNPSLKSRVTMSVDTSKNQFSLKVNSVTAADTAVYYCARVSIFGVGTFDYWGQGTLVTVSS
VL: EIVMTQSPATLSLSPGERATLSCRASQSVSSYLAWYQQKPGQAPRLLIYDASNRATGIPARFSGSGSGTDFTLTISSLEPEDFAVYYCHQYGSTPLTFGGGTKAEIK
